In paper PMC7642679:

Experiments:
Test in all cases: SEC
[1] = biological target: spike-6P (HexaPro) SARS-CoV-2 spike protein construct (SARS-CoV-2)
[2] = biological target: spike-6P D614G with the RBD replacement A419V (SARS-CoV-2)
[3] = biological target: spike-6P D614G with the RBD replacement A522V (SARS-CoV-2)
[4] = biological target: spike-6P D614G with the RBD replacement E484Q (SARS-CoV-2)
[5] = biological target: spike-6P D614G with the RBD replacement F338L (SARS-CoV-2)
[6] = biological target: spike-6P D614G with the RBD replacement G446V (SARS-CoV-2)
[7] = biological target: spike-6P D614G with the RBD replacement R408T (SARS-CoV-2)
[8] = biological target: spike-6P D614G with the RBD replacement S373P (SARS-CoV-2)
[9] = biological target: spike-6P with the D614G substitution (SARS-CoV-2)

Substance: spike-6P (HexaPro) SARS-CoV-2 spike protein construct
- stoichiometry N [1]: 3

Substance: spike-6P D614G with the RBD replacement A419V
- stoichiometry N [2]: 3

Substance: spike-6P D614G with the RBD replacement A522V
- stoichiometry N [3]: 3

Substance: spike-6P D614G with the RBD replacement E484Q
- stoichiometry N [4]: 3

Substance: spike-6P D614G with the RBD replacement F338L
- stoichiometry N [5]: 3

Substance: spike-6P D614G with the RBD replacement G446V
- stoichiometry N [6]: 3

Substance: spike-6P D614G with the RBD replacement R408T
- stoichiometry N [7]: 3

Substance: spike-6P D614G with the RBD replacement S373P
- stoichiometry N [8]: 3

Substance: spike-6P with the D614G substitution
- stoichiometry N [9]: 3
